Test results published in US20020127721A1.

What was measured:
[1] = molecular target: human coxsackievirus and adenovirus receptor (CAR) (human) (UniProt P78310); experiment: cell-based or functional assay
[2] = molecular target: human coxsackievirus and adenovirus receptor (CAR) (human) (UniProt P78310); experiment: flow cytometry, RmcB staining of CHO cells after Ad5CMVhCAR:CaPi gene transfer
[3] = molecular target: human coxsackievirus and adenovirus receptor (CAR) (human) (UniProt P78310); experiment: flow cytometry, RmcB staining of 3T3 cells after Ad5CMVhCAR:CaPi gene transfer

UniProt P78310, sequence (P78310 20-365): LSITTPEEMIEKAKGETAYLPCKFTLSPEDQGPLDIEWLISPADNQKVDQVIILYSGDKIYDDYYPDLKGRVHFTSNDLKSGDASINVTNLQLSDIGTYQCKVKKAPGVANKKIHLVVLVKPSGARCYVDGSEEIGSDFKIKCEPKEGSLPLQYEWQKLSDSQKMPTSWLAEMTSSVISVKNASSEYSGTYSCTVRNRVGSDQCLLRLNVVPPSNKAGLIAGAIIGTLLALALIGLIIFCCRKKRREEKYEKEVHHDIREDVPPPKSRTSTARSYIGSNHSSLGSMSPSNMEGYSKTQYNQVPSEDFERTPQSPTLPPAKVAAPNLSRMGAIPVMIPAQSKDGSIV

Row | Substance | infection of 3T3 cells after CAR gene transfer (% eGFP-positive by FACS; 3% without CAR) [1] | infection of CHO cells after CAR gene transfer (% eGFP-positive by FACS; 0% without CAR) [1] | percent of cells positive for CAR [2] | percent of cells positive for CAR [3]
1 | Ad5 fiber (endogenous, non-recombinant fiber of the control virus Ad5RSVeGFP) (from UniProt P11818 1-581) | 21% | 57% |  | 
2 | monoclonal antibodies (mAbs) against CAR (RmcB) (antibody) |  |  | 96% | 92%
